We go through 104 substances from the supplement of paper PMC11502859.
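Also: lentiviral eGFP-IRES-mCherry reporter pool sorted by FACS 96 h post-transduction, gated on mCherry-high cells, Illumina read counts normalized per million, median across four biological replicates.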

The data set concerns HEK293T. Kind of data set: median enrichment of reporter reads in eGFP-reduced (low/intermediate) vs eGFP-high sorted cells (eGFP-extension fusion abundance) (ratio); higher = stronger loss of eGFP-fusion protein abundance (more destabilising extension).
Turning to SEMPAALPCQR [CUEDC1], the median enrichment was determined as 1.21. In the case of “SEPQLTKSACPRTAPALELGARAAELVFGPQRRIQNQKLKSDVRWAPAPSAESRQGEAGWSQAPSHAAPKSWTHLWGAPHLHL [MYO9B]”, the median enrichment was found to be 7.17. The value for SEPSHSLSPLPCLPHLPPTTRA [RAB3A] was 0.136. The value for SERQEVEWRR [STAMBPL1] was 0.37. The value for SESTGSSQTYRCPAR [FAM221B] was 0.476; that for “SETAGFLLLFFLVVQLSPPPLLSCLLIWSFSLFSACHVFSGTYLHPPQHQFP [CNTNAP5]” was 11.4. SETEASLFHSPS [EPB41L4B]: the median enrichment came out at 0.374.

On to SEVIFL [CES5A], for which the median enrichment came out at 1.39. The value for SEVLLETKSPSPIAEGGGDPLL [ARID3C] was 0.257; that for “SEVPDMGPICSSSQLLSLTSHHGGSSHLLWICSL [CIAPIN1]” was 4.18. The value for “SEVRACAMCETGKLGAQFEFFLFFFFLSTKNTLMVNTGQNQERMCSFQGLGQNL [GAB3]” was 7.14; that for “SEVRPGPGQGLGPAPCPICSGPQAPPFEEVG [GUCY2D]” was 1.47. The value for SFAFIF [CHST9] was 8.28; that for SFFFPSAS [KAT2B] was 2.2. Regarding SFFSLSRFLAALVLL [LONRF2], the median enrichment came out at 8.16. Take SFHLLKPAYFRTLRLTVFSLLMMSSC [PIK3AP1]: the median enrichment is 11.1. For SFLFYSH [DNAJB9] the value was 9.2; for SFQNWMDFYFFQ [CCDC169], 19.6; for SFTHHMDSIYKSQ [EDNRB], 1.08. For the substance “SGAENGSCRKIRLRRLPAFCHPSHSQTPDHLKLLTLWFQIFFNLLLLLSLSNLGTFKNREMSECG [STAT3]”, the median enrichment was 6.44. The value for SGAGPGPRGGTSINSVAKLE [MYL7] was 0.743; that for SGAKQRHQLLHQKS [SGMS2] was 0.386. For the substance “SGARLWDRPGPASGGDPGSGLGSPDLEACPSRASQD [CEBPA]”, the median enrichment stood at 0.648.

As to SGASQRSAHADNKVALSLE [FIBP], the median enrichment was determined as 0.209. For SGCHGRLSPSIL [KRTAP6-1] the value was 0.506; for SGEMCVTINSKMGKPPSPCI [AK3], 0.494.

Regarding SGFLKLSSKLLRLFK [FABP12], the median enrichment amounted to 7.41.

With “SGGLPRRAKMAEMILKITEEREDQPEFPLDICVFLFFYFVLFFLLLLLP [SOX9]”, the median enrichment stood at 4.3. As for SGGV [DHRS2], the median enrichment is 0.226. For “SGGVGPGRAGVCWHRQPPLWALGGPLKGSPTRGPDESFLSGVGSQRGSPPAAWGRAWPGRVIQRVCQPLTGSPSVAATRSTEL [FAM53B]” the value was 5.41; for SGIRLPGNSGTVALADHLQHPAS [SLC2A10], 0.633; for SGKWCFPQEDYWNWMTSE [ACBD5], 2. As for SGLDSTRALENEMTV [APCS], the median enrichment is 0.582. For “SGLELYPGPNSRTTRGLQTFLGGQAGQMAPPLGNAPSCAVERS [ELF3]” the value was 2.16.

“SGLLALTLQPTLAVWPSPGSFPAPLPLFPVLLNSPSWRVQALGMGGTRPHSFHRALRPDTADQPHSAQEAASGVGAQRGTAAS [BAP1]”: the median enrichment is 1.74. The value for SGLLLY [MRPL20] was 1.83.

As to “SGLLPLGPLTLSGWWTTKYNPVYNLKIYFTFVLLYLFIKG [SMAD4]”, the median enrichment amounted to 7.74. Regarding SGLPLPSLLEIVNPAVCAGLIVSVL [FBXO25], the median enrichment came to 6.93. The value for SGLQGRQLSFV [SYT17] was 0.686; that for “SGLSDCPCPAHHPVTATPKPTPTGAHCPTPAPGRHPAGHFTCCH [FERMT3]” was 1.55; that for “SGLVCRTAAGAPPGQIIAASDCGLYLFIPSDFFNVRYL [FBLN1]” was 30.5. For “SGLWPGTRSHLAGRWLLPQFSLENPQLSTHPLPQNQFQ [RBM42]” the value was 9.36; for SGNRDAFPCSSLQPPLPYKIWSNS [ADH1B], 2.16; for “SGPGIHVGGRGRGGRREGRGEIHTVDTLTSWPKSLPQDLPDLHGQASYGGVSISFFLFLFPGLRASWGPRFTNSPTPLKLWRR [AQP1]”, 5.75. For “SGPPFGHHQVPKVPQEASTLHARPASISLSFPVWPSFEGHVRWRSQARQTLTRGLSSKRALGWTTENISSRGSYNKNTYLPAL [PLPP7]” the value was 3.53; for SGPPPAILSS [CYP4A22], 0.549. With SGQGPRTQCLARPLPLAFEAKASSR [AGT], the median enrichment turned out to be 0.949.

SGQGQPRD [SLC5A5]: the median enrichment worked out at 0.35. The value for SGSCCVPTETTIWGLLGNAVNAEGSDVWVL [PATZ1] was 10.9; that for SGSIFLIDEKNNSVMAIYPC [NDUFA1] was 9.19; that for “SGSRRSRRDPHGSIALASDLAWRYFCRELGSRNASDLSALHIVGLKSGWELAKSLFRLFN [MRPL34]” was 8.92. For “SGSVTRCSLIPADLTGPLANPTSNQKCSSVESETGKWLLQDYSLLQKRNQIHEWKSLCKFNFITHNMYYFF [PUM1]” the value was 8.89. The value for SGTAVPACSPHLGRGSLAAFSLRSRST [AGAP1] was 8.94; that for SGTRKEID [PCDHB16] was 0.57. As to “SGTVGCVGVGIPLAPASPTLALQLGPRGISVLLSQGRSPAGDGGRGSSILPRVCLGVCEQVCKTPEAEAILPPRSLEGVCAWA [ZSWIM4]”, the median enrichment amounted to 5.27. For SGTWCATGCKLQGIFIGCSCIVLHSSAIYF [PSEN2] the value was 7.44; for SGV [PTCHD4], 0.462; for “SGVLSSHFCVTCHFLPLVPCRFGMKMVSFAVFNLFFIMVEYSSRSFVLVYEENLHIFFVFQ [CHIC1]”, 9.4. The value for SGWGWTNNQARAEGFMERPLGDPR [S1PR2] was 0.739. The value for “SGWLSLPFSPSLSALGSVSTAGPKVKVLPLPEASWQGLSWLEVASLVPVLTPRPQRSCLPCCLSPPLCLCLRCVSHSEPPCFC [CCDC97]” was 5.33; that for “SGWLSTCSSWMASGPKLQSLNDQEQHEGLGTYPCKEFLDG [SQOR]” was 1.57; that for SHFKLTL [PTGIR] was 1.1. As for “SHGGVRSCPCSESTFPAIPGAGGACASAIPCDQAPRGRDQRGRKHCACAELSASARRASLPNQPWVPGSRLEPAINSLFLAPG [TSSK6]”, the median enrichment is 4.1. Consider SHH [SPRY2], for which the median enrichment worked out at 0.73. The value for SHHQELTHT [NUP88] was 0.49; that for SHVGQIKRQLQK [CTSO] was 0.527.

For the substance SHVRNLSIK [AGTR1], the median enrichment turned out to be 0.587. For SIFFYQEG [PTEN] the value was 2.76. For “SIILSPFGSCVERECEIYIISFWERLVLDAP [HSP90B1]” the value was 10.5; for SILFHLILALHLLYISPE [CLRN3], 9.21. The value for SIPHPGSSAPRAGGHLRSVISL [IP6K2] was 0.975. Take SISL [NPAS4]: the median enrichment is 0.469.

Consider SISPSC [OR5AK2], for which the median enrichment stood at 0.461.

With “SITLILWKSEQAVAVFHSSSCCVQLLPSQPFNKIILKCYPSALPFNGKMKGSDNTGGPNFVPVLCVPYLSVPVYRLCKSLV [RABL3]”, the median enrichment was 6.24. Turning to SIVLSTNLKSKGSSQSQPLCP [HIST1H3E], the median enrichment is 3.49. In the case of SKACILFEDIYKAI [KRT34], the median enrichment came out at 2.29.

Take “SKCVLRASLFFTAAATFPHCLRCREGQVPASTGISDKPRAQPTRGSSLHAHTGYGDGGLQVSSARGLSLWHPHSCPAREALVV [SSNA1]”: the median enrichment came out at 5.95. SKERHTSEQRSYMCTK [DEFB114]: the median enrichment was found to be 0.227. Regarding SKGQLPGKTRF [PHLDA1], the median enrichment worked out at 1.67.

SKHLKC [FAN1]: the median enrichment came to 0.578. For SKILVLLNYLI [TIPARP] the value was 5.53; for SKNQRGSEKPRET [CDKN2A], 0.493; for “SKQKHQHTSLDNSIWSTRLSYRFNFFCILRTL [HNRNPH3]”, 6.48. With SKQVTDLF [FOXN3], the median enrichment worked out at 0.53. For SKRGHMESGGHLDD [PTGR1] the value was 0.345. The value for “SKRPGRKPPPLKVVFVTVLWSIVLKMGNYILLCQGQQTPAVKGIPSARRLFGACMFIAPARPDRGLLHKPCLVHFFTCKGTEC [AHNAK]” was 7.93. For SKTNTFYLWEAVPRFQPEL [ZBTB21], the median enrichment was 11.3.

Consider SKTWPENPQVLQRKTELGKGESWKDGAD [ABHD15], for which the median enrichment worked out at 0.348. The value for SKWADE [PLPP5] was 0.25; that for SLCC [POLQ] was 0.62. As to SLCFV [E2F3], the median enrichment amounted to 2.42. For SLEWTTAKLAPSSDRKPPCVGDCRHAK [TM9SF4], the median enrichment came to 1.73. For SLFSLTYRMLV [ZNF639] the value was 6.9. For the substance SLIRLAT [AK6], the median enrichment worked out at 9.3.

Turning to SLKPITVLTAQWN [KCNA2], the median enrichment came to 10.7. Regarding SLLLVPK [RBKS], the median enrichment turned out to be 1.87. For SLREAC [ZNF672] the value was 0.708; for SLRLQRLLCIAFLLQCKERDQGSQEMFAQNGR [GDNF], 8.43. For “SLRSLRAGPSAAGSCLNTSLDMARTHRDTGQDQPCLWRQDTTIWPMAVTSCRVQSQTGNHHLRQDLPASFTFLISRALPPILC [SLC22A13]” the value was 8.01; for SLTVFHKEDV [ATP2A2], 0.983. The value for “SLYGAICPPSPSRTLEGTSAPAGLGPPLSLLQASWCLHTSGSWPRKSQQEQGMGEGRCHTTWR [CISH]” was 4.49; that for SLYKKVGTMAAG [Degron KLHDC3] was 7.34; that for SLYQKPEVE [UGT2B17] was 0.724. In the case of SLYRLRR [ST3GAL6], the median enrichment came out at 3.73.
